In patent publication US20240390509A1, “ANTIBODY-DRUG CONJUGATE, PREPARATION METHOD THEREFOR, AND PHARMACEUTICAL USE THEREOF” (SHANGHAI HANSOH BIOMEDICAL CO., LTD., priority 2021, published 2024) one finds Tumor inhibition rate data, which are given here for two molecules.

Common to all, as to design: species or system nude mice (Balb/c Nude)
For experiment [1], the system named is human gastric cancer NCI-N87 tumor cell transplant mouse model. Nature of the experiment: Dose-dependent in vivo anti-tumor effect, NCI-N87 transplant mouse model (Example 11). The settings on record: NCI-N87 xenograft, 1 mg/kg IV Q2W, day 28. Here is the method:
In order to further study the inhibitory effect of antibody-drug conjugate on tumors formed in vivo, the Trop-2 positive tumor cell human gastric cancer NCI-N87 tumor cell transplant mouse model was used to evaluate the inhibitory effect of candidate molecule on tumor proliferation in vivo. 5×10^6 NCI-N87 cells were injected subcutaneously into 6-week-old nude mice (Balb/c Nude) weighing about […]. After 8 days, the average tumor volume reached 175 mm^3 and grouping was performed, and the antibody-drug conjugate was started to be injected intravenously every 2 weeks at a dose of 2 mg/kg or 1 mg/kg. The control used human IgGI isotype control antibody at a dose of 2 mg/kg. There were 5 mice in each group of the control group or the administration group. The tumor inhibition rate was calculated by measuring the tumor volume.

In experiment [2] the test system is human head and neck cancer squamous cell carcinoma FaDu tumor cell transplant mouse model. The experiment in a line: In vivo efficacy, FaDu transplant mouse model. Conditions: FaDu xenograft, day 17. The protocol:
In order to further study the inhibitory effect of antibody-drug conjugate on tumors formed in vivo, the Trop-2 positive tumor cell human head and neck cancer squamous cell carcinoma FaDu tumor cell transplant mouse model was used to evaluate the inhibitory effect of candidate molecule on tumor proliferation in vivo. The cell suspension mixed with Matrigel in equal proportions was added, and 5×10^6 FaDu cells per animal were injected subcutaneously into 6-week-old nude mice (Balb/c Nude) weighing about […]. After 8 days, the average tumor volume reached 133 mm^3 and grouping was performed, and the antibody-drug conjugate was started to be injected intravenously at a single dose of 3 mg/kg or 1 mg/kg. The control used human IgGI isotype control antibody at a dose of 3 mg/kg. There were 5 mice in each group of the control group or the administration group. The tumor inhibition rate was calculated by measuring the tumor volume.

Experiment [3] concerns lung cancer Calu-3 tumor cell transplant mouse model. The experiment in a line: In vivo efficacy, Calu-3 transplant mouse model. The settings on record: Calu-3 xenograft, 10 mg/kg IV single dose, day 21. Here is the method:
In order to further study the inhibitory effect of antibody-drug conjugate on tumors formed in vivo, the Trop-2 positive tumor cell lung cancer Calu-3 tumor cell transplant mouse model was used to evaluate the inhibitory effect of candidate molecule on tumor proliferation in vivo. The cell suspension mixed with Matrigel in equal proportions was added, and 2×10^6 Calu-3 cells per animal were injected subcutaneously into 6-week-old nude mice (Balb/c Nude) weighing about […]. After 8 days, the average tumor volume reached 148 mm^3 and grouping was performed, and the antibody-drug conjugate was started to be injected intravenously at a single dose of 10 mg/kg. The control used human IgG1 isotype control antibody at a dose of 10 mg/kg. There were 5 mice in each group of the control group or the administration group. The tumor inhibition rate was calculated by measuring the tumor volume.

B1: DS-1062-compound D (y = 4) (conjugate, chains of the INN, looked up)
VH: QVQLVQSGAEVKKPGASVKVSCKASGYTFTTAGMQWVRQAPGQGLEWMGWINTHSGVPKYAEDFKGRVTISADTSTSTAYLQLSSLKSEDTAVYYCARSGFGSSYWYFDVWGQGTLVTVSS
VL: DIQMTQSPSSLSASVGDRVTITCKASQDVSTAVAWYQQKPGKAPKLLIYSASYRYTGVPSRFSGSGSGTDFTLTISSLQPEDFAVYYCQQHYITPLTFGQGTKLEIK
modifications: compound D drug conjugate
Consider B1, for which the Tumor inhibition rate in experiment [1] was 78.2%.

B2: DS-1062 (conjugate, chains of the INN, looked up)
VH: QVQLVQSGAEVKKPGASVKVSCKASGYTFTTAGMQWVRQAPGQGLEWMGWINTHSGVPKYAEDFKGRVTISADTSTSTAYLQLSSLKSEDTAVYYCARSGFGSSYWYFDVWGQGTLVTVSS
VL: DIQMTQSPSSLSASVGDRVTITCKASQDVSTAVAWYQQKPGKAPKLLIYSASYRYTGVPSRFSGSGSGTDFTLTISSLQPEDFAVYYCQQHYITPLTFGQGTKLEIK
modifications: deruxtecan payload
Consider B2, for which the Tumor inhibition rate in experiment [2] (1 mg/kg IV single dose) turned out to be 74.8%; in experiment [2] (3 mg/kg IV single dose), 200%; in experiment [3] it was 85.61%.
